Measured values taken from US10774132B2, “Ultralong complementarity determining regions and uses thereof” (THE SCRIPPS RESEARCH INSTITUTE, priority 2012, dated 2020).

Key:
[1] = biological target: T1, CXCR1 (Homo sapiens, UniProt P25024); assay: Flow cytometry binding to CXCR1-U2OS cells; conditions: CXCR1-U2OS cells; cell culture supernatant; flow cytometry
T1 construct: host or cells: U2OS
T1 sequence (P25024 1-350): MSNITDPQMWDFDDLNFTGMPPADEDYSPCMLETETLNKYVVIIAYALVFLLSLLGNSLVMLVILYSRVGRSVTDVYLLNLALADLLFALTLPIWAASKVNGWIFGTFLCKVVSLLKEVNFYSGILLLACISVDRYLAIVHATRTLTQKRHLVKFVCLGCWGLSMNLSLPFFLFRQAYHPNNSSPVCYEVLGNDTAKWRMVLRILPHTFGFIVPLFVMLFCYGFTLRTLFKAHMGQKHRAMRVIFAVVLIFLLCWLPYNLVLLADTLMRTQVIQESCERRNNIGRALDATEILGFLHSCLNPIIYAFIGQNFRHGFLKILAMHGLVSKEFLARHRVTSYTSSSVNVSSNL
Description: (§1) Briefly, a cell line expressing functionally validated CXCR1 derived from U2OS cells was obtained from DiscoveRx and cultured per manufacturer's instructions (Cat #93-0226C3, DiscoveRx Corporation, Freemont, Calif.). The parental cell line U2OS was obtained from ATCC and cultured under the same conditions as the CXCR1 cells. Cell culture supernatants from Example 2 above were then tested for binding to cells by flow cytometry. The adherent U2OS or CXCR1-U2OS cells were dissociated with Accutase (Innovative Cell Technologies, Inc., San Diego, Calif.), neutralized with an equal volume of media containing 10% serum, centrifuged at 1000 g, and resuspended in PBS with 2% BSA. Next, cells were dispensed into microtiter plates to achieve between 30,000 to 300,000 cells per well, centrifuged again, and resuspended in cell culture supernatant containing expressed IgG, or a dilution of IgG-containing cell culture supernatant. A fluorescent-conjugated anti-Human Fc antibody was used to detect binding of the expressed BLV1H12-IL8 fusion proteins to cells.

[2] = tested on: Parental U2OS; assay: Flow cytometry binding to parental U2OS cells; conditions: cell culture supernatant
Description: as §1

B1: Ab: bovine BLV1H12 antibody with ultralong CDR3, no insertion; scaffold of the fusions and control (antibody)
heavy: QVQLRESGPSLVKPSQTLSLTCTASGFSLSDKAVGWVRQAPGKALEWLGSIDTGGNTGYNPGLKSRLSITKDNSKSQVSLSVSSVTTEDSATYYCTSVHQETKKYQSCPDGYRERSDCSNRPACGTSDCCRVSVFGNCLTTLPVSYSYTYNYEWHVDVWGQGLLVTVSS
light: QAVLNQPSSVSGSLGQRVSITCSGSSSNVGNGYVSWYQLIPGSAPRTLIYGDTSRASGVPDRFSGSRSGNTATLTISSLQAEDEADYFCASAEDSSSNAVFGSGTTLTVLGQPKSPPSVTLFPPSTEELNGNKATLVCLISDFYPGSVTVVWKADGSTITRNVETTRASKQSNSKYAASSYLSLTSSDWKSKGSYSCEVTHEGSTVTKTVKPSECS
[1]
  Median Arbitrary Fluorescence Units (IgG binding): 4 AFU
[2]
  Median Arbitrary Fluorescence Units (IgG binding): 4 AFU
